Measurements published in patent EP4703388A1.

Experiments:
[1] = molecular target: HuRatTF, human-rat hybrid TF antigen (human-rat hybrid); assay: ELISA, HuRatTF coated, antibody titrated
[2] = molecular target: human tissue factor (TF) on MDA-MB-231, NCI-H358 and HCT116 cells (human) (UniProt P13726); assay: cell-based or functional assay
Chain of human tissue factor (TF) on MDA-MB-231, NCI-H358 and HCT116 cells (human) (P13726 33-295): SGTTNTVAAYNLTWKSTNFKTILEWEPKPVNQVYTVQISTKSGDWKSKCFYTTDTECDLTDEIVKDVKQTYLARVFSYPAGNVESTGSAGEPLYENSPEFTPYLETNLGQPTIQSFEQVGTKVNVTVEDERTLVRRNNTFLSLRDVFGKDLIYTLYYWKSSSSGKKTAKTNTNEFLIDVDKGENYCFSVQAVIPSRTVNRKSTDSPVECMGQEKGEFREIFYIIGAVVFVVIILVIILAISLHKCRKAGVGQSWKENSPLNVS

Chain of HuRatTF, human-rat hybrid TF antigen (human-rat hybrid) (chain, as listed by the source limits assumed): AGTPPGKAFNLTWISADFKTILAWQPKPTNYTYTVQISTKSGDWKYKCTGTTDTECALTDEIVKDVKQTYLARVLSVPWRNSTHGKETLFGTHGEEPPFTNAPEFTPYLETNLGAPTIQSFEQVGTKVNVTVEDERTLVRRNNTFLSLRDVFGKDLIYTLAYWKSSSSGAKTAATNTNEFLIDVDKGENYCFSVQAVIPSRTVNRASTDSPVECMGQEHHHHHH

Substance: TF011 (monoclonal antibody sequence of tisotumab vedotin)
- Maximum (OD450 nm) [1]: 0.0585 OD450 nm
- Inhibition rate (%), Factor-VII-Human Chromogenic-Activity blood coagulation pathway assay (FVIIa, MDA-MB-231 cells, FX; antibody 20 µg/mL) [2]: 92.8%
